What is called Kd is the constant that tells how readily two partners part at equilibrium.

The values that follow come from patent US20050049201A1, “Detection and removal of lead using lead-binding proteins” (priority 2001, published 2005).

Assay [1] is described as follows: Solid phase assay for lead: protein on nitrocellulose with chromogenic dye. The settings on record: combined results, various buffers, pH, salts and dyes. The protocol:
A solid phase assay for the detection of lead was also developed using one or more synthetically produced lead-binding proteins. Both TB4 and ACBP and the various mutants that have been generated from them can be used in this assay. The experiment is performed by binding the protein to a solid surface support, such as nitrocellulose paper, cotton, glass microfibers, or polystyrene beads using, for example, methods described herein. Then the sample to be tested, such as saliva or blood, is placed onto the surface and allowed to react with the protein. After washing with buffer, or example a neutral non-chelating buffer to remove any unreacted material, the sample is treated with a ligand that can detect a lead-leading binding protein complex, for example, a ligand that can cause a color chance upon detecting a lead-protein complex. Examples of such ligands include, sodium sulfide and sodium rhodizonic acid. Furthermore, the concentration of the lead in the sample being tested may be determined by the intensity of the spot produced upon binding of the dye. […]
As a control, the assay was tested using solutions containing several different buffers, pH conditions, and salts for reaction with the sodium sulfide and sodium rhodizonic acid dyes used. […] The pH was determined empirically for rhodizonic acid over a range of pH 4 to pH 8. […]

The conditions of assay [2]: lead binding; Quintanilla-Vega 1995, Smith 1998; read-out: dissociation constant (Kd) of high affinity lead-binding region; cited from earlier work.

B1: acyl-CoA binding protein (protein, listed as Homo sapiens)
chain: MSQAEFEKAAEEVRHLKTKPSDEEMLFIYGHYKQATVGDINTERPGMLDFTGKAKWDAWNELKGTSKEDAMKAYINKVEELKKKYGI
Turning to B1, the “performance of solid phase lead detection assay” value in assay [1] is “works well under various conditions”. Also, the Kd in assay [2] is roughly 1 nM.
